Results as given in patent publication US20180118837A1 (Hoffmann-La Roche, published 2018).

Experiments:
[1] = target: SBP-tagged HER3-ECD (human); assay: ELISA-type assay, 10 nM Eu-labelled Heregulin-beta on plate-bound SBP-tagged HER3-ECD, M-05-74 titrated
HER3 ECD-HRG complex [2] = target: T1, HER3 ECD-HRG complex (human, UniProt P21860 20-643); assay: binding affinity; method not restated (evaluated 'as described above')
T1 construct: Her-3 ECD pre-incubated with a 5-fold molar excess of Heregulin; also called Heregulin/Her-3 ECD
T1 sequence (P21860 20-643 limits assumed, one chain of several): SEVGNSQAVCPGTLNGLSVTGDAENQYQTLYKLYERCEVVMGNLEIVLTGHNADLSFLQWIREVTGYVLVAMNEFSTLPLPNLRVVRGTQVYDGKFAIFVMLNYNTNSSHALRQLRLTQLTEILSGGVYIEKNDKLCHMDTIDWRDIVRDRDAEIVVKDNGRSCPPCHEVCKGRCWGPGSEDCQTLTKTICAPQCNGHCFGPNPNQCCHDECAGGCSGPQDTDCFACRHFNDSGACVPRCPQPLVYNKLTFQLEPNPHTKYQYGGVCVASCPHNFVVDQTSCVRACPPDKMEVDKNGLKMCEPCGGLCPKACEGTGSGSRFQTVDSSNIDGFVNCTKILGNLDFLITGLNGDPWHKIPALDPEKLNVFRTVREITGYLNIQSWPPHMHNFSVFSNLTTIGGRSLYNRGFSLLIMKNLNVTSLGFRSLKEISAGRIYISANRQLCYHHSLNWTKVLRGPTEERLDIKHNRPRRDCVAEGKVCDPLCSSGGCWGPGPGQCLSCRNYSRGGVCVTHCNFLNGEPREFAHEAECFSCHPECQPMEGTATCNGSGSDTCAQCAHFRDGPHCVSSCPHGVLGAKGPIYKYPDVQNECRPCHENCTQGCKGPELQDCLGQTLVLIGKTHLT

[3] = target: T2, human recombinant HER3 ECD (human, UniProt P21860 20-643); assay: binding affinity; method not restated (evaluated 'as described above'); HER3-ECD without HRG
T2 construct: 68 kDa recombinant protein; also called human-Her3-ECD; full length Her3 ECD
T2 sequence (P21860 20-643): as the sequence (P21860 20-643 limits assumed, one chain of several) above

[4] = target: T2, human recombinant HER3 ECD; assay: binding affinity; method not restated (evaluated 'as described above')
HER3 ECD-HRG complex [5] = target: T1, HER3 ECD-HRG complex; assay: SPR Biacore T100, antibody captured
HER4 ECD-HRG complex = target: T3, HER4 ECD-HRG complex (human, UniProt Q15303 26-651); assay: SPR Biacore T100, antibody captured
T3 construct: Her-4 ECD pre-incubated with a 5-fold molar excess of Heregulin; also called Her-4 ECD/Heregulin complex
T3 sequence 1: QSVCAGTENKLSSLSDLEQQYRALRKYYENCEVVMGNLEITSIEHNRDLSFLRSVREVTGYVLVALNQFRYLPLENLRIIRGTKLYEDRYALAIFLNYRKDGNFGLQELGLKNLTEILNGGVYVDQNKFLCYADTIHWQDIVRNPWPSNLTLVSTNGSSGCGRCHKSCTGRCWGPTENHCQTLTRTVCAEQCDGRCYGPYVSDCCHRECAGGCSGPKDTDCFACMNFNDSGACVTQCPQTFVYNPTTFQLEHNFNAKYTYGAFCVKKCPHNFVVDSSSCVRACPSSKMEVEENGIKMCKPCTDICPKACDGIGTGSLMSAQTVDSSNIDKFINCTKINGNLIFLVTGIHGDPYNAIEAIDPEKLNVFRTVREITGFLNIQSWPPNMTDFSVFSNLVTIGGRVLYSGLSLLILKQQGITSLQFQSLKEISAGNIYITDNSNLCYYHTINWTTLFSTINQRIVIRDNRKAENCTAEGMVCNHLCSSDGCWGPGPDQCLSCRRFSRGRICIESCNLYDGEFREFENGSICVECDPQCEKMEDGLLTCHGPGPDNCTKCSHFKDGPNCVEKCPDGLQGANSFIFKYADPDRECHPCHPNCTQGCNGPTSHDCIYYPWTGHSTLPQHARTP
T3 sequence 2: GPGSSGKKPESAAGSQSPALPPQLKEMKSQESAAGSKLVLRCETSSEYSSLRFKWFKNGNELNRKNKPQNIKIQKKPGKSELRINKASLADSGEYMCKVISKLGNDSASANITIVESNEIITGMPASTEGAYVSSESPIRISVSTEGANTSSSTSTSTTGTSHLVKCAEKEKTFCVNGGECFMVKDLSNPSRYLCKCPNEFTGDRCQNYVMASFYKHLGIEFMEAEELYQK

Sequence of SBP-tagged HER3-ECD (human) (chain, as listed by the source limits assumed, form in doubt): as the sequence (P21860 20-643 limits assumed, one chain of several) above

## Europium-labeled Heregulin-beta (PeproTech, Cat. #100-03) (from UniProt Q02297-11 122-186) (ligand)
[1]
  time-resolved fluorescence signal at the plateau, in the presence of M-05-74: 650

B1: huMab M-05-74_5 (antibody, V domains shown)
VH: QVQLVQSGAELKKPGASVKVSCKASGYTLTDYWIHWVRQAPGQGLEWMGYINPYTGYTESNQKFQGRVTMTADTSTSTAYMELSSLRSEDTAVYYCARPYYYGDYWGQGTTVTVSS
VL: EIVLTQSPATLSLSPGERATLSCRASSSVSYMHWYQQKPGQAPRLLIYSTSNLATGIPARFSGSGSGTDFTLTISSLEPEDFAVYYCQQRSSYPFTFGQGTKLEIK
notes: Humanized variant of M-05-74
HER3 ECD-HRG complex [2]
  Kd: 4.1 nM
[3]
  Kd: 3.2 nM

B2: huMab M-05-74_6 (antibody, V domains shown)
VH: QVQLVQSGAELKKPGASVKVSCKASGYTLTDYWIHWVRQAPGQGLEWMGYINPYTGYTESNQKFQGRVTMTADTSTSTAYMELSSLRSEDTAVYYCARPYYYGDYWGQGTTVTVSS
VL: DIQMTQSPSSLSASVGDRVTITCRASSSVSYMHWFQQKPGKAPKLLIYSTSNLQSGVPSRFSGSGSGTDFTLTISSLQPEDFATYYCQQRSSYPFTFGQGTKLEIK
notes: Humanized variant of M-05-74
[4]
  Kd: 8.3 nM
HER3 ECD-HRG complex [2]
  Kd: 8.6 nM

B3: anti-HER3/HER4 antibody M-05-74 (antibody, V domains shown)
VH: QVQLQQSGAELAKPGASVKMSCKTSGYTLTDYWIHWVKQRPGQGLEWIGYINPYTGYTESNQKFKDKATLTADKSSNTAYIQLSSLTSEDSAVYYCARPYYYGDYWGQGTTLTVSS
VL: QIVLTQSPAIMSASPGERVTITCSASSSVSYMHWFQQKPGTSPKLLIYSTSNLASGVPARFSGSGSGTSYSLTISRMEAEDAATYYCQQRSSYPFTFGSGTKLEIK
notes: Murine monoclonal antibody from hybridoma (culture supernatant or purified full length); also called M-074; M-5-74
HER3 ECD-HRG complex [5]
  ratio MR (+Heregulin)/MR (-Heregulin), against HER3-ECD alone: 3 fold
  ratio ka (+Heregulin)/ka (-Heregulin), against HER3-ECD alone: 4.85 fold
HER4 ECD-HRG complex
  ratio MR (+Heregulin)/MR (-Heregulin), against HER4-ECD alone: 6 fold
  ratio ka (+Heregulin)/ka (-Heregulin), against HER4-ECD alone: 23.9 fold
